Values quoted from earlier work in patent US20250341526A1, “NOVEL DYES” (Quantum-Si Incorporated, priority 2024, published 2025).
Numbering of substitutions follows the chain as printed.

B1: PS555: ClpS amino acid recognition protein, SEQ ID NO: 69 (protein, listed as Planctomycetes bacterium)
chain: MADSAQTGVAEPIQETLRRRKLRDDRRPKRQPPYHVILWNDNDHTYAYVVVMLMQLFGYPAEKGYQLASEVDTQGRAVVLTTTKEHAELKRDQIHAYGKDGLIEKCKGSMWATIEPAPGE
B2: PS575: ClpS amino acid recognition protein, SEQ ID NO: 89 (protein, listed as Leptospira kmetyi)
chain: MASTQTPDLNEITEESTKSTGGPWRVVLWDDNEHTYEYVIEMLMEICTMTVEKAFLHAVQVDQEKRTVVFSGEFEHAEHVQERILTYGADPRMSNSKGSMSATLEK
B3: PS576: ClpS amino acid recognition protein, SEQ ID NO: 90 (protein)
chain: B2 chain with M44V, T48M, Q63K, V69D, F74L, T86N, K106R
modifications: Leptospira interrogans
B4: PS556: ClpS amino acid recognition protein, SEQ ID NO: 70 (protein, listed as Blastopirellula marina)
chain: MGDSNTSVAEPGEVTVVTTKPAPKKAKPKRQPKYHVVLWNDDDHTYEYVILMMHELFGHPVEKGFQIAKTVDADGRAICLTTTKEHAELKRDQIHAYGKDELIARCRGSMSSTIEPEC
B5: PS564: ClpS amino acid recognition protein, SEQ ID NO: 78 (protein, listed as Planctomycetes bacterium)
chain: MFEEVVSVAVAEPKTKKQSRTKPKRQPPYHVILWDDTDHTFDYVIKMMGELFRMPREKGYQLAKEVDTSGRAICMTTTLELAELKRDQIHAFGRDDASAHCKGSMSATIEPAEG
B6: PS559: ClpS amino acid recognition protein, SEQ ID NO: 73 (protein, listed as Planctomycetaceae bacterium)
chain: MNQAAISPNPDIKPNPSTHKKRASQRQPRYHVILWNDNDHTYHYVVTMLQKLFGHPPRTGIKMATEVDKKGKVIVLTTSREHAELKRDQIHAFGADKLIRRSKGAMAASIEPES
B7: PS554: ClpS amino acid recognition protein, SEQ ID NO: 68 (protein, listed as Planctomycetia bacterium)
chain: MSDSASATVEVQADPPADATARSQPTPARSTGSKPKRQPRYHVVLWNDDDHTYEYVIAMLRRLFGIEPEKGFRIAEEVDQSGRAVVLTTTREHAELKRDQIHAFGADRLLARSKGSMSASIEPEA
B8: PS569: ClpS amino acid recognition protein, SEQ ID NO: 83 (protein, listed as Planctomycetes bacterium)
chain: MYSKNQIKIYCSEDDKGQTATPLLEKKPKFAPLYHVILWDDNTHTYEYVIKLLMSLFRMTFEKAYQHTLEVDKKGRTICITTHLEKAELKQEQISNFGPDILMQNSKGPMSATIEPAN
B9: PS568: ClpS amino acid recognition protein, SEQ ID NO: 82 (protein, listed as Dehalococcoidia bacterium)
chain: MTTPSLPTRETEVEERTEVEPERLYHLVLLDDDQHSYQYVIEMLASIFGYGSEKAWTLARIVDTEGRAILETASHAQCERHQSQIHAYGADSRIPTSVGSMSAVIEEAGTPPQT
B10: PS374: ClpS amino acid recognition protein, SEQ ID NO: 7 (protein)
chain: MRWEDPLAAEPVTPGVAPVVEEETDAAVETPWRVILYDDDIHTFEEVILQLMKATGCTPEQGERHAWTVHTRGKDCVYQGDFFDCFRVQGVLREIQLVTEIEG
B11: PS375: ClpS amino acid recognition protein, SEQ ID NO: 8 (protein)
chain: MEAEPETKVLASIPGVGTSEPFRVVLFNDEEHSFDEVIFQIIKAVRCSRAKAEALTMEVHNSGRSIVYTGPIEQCIRVSAVLEEIELRTEIQS
B12: PS566: ClpS amino acid recognition protein, SEQ ID NO: 80 (protein, listed as Planctomycetaceae bacterium)
chain: MSSPSSLDDVQVSTSRAKPANETRTRKQPPYAVIVENDDHHTFLYVIEALMKVCGHAPEKGFVLAQQIHTQGKAMVWSGTLELAELKRDQLRGFGPDNYAPRPVTFPLGVTIEPLP
B13: PS560: ClpS amino acid recognition protein, SEQ ID NO: 74 (protein, listed as Planctomycetes bacterium)
chain: MTETITTPAERTQTQAEPRSDRAWLWNVVLLDDDEHTYEYVIRMLHTLFGMPVERAFRLAEEVDARGRAVVLTTHKEHAELKRDQVHAFGKDALIASCAGSMSAVLEPAECGSDDED
B14: PS558: ClpS amino acid recognition protein, SEQ ID NO: 72 (protein, listed as Planctomycetia bacterium)
chain: MTATTADPDRTTAEKTTKKARRSGQPKRQPRYHVILWNDNDHTYQYVVAMLQQLFGHPATTGLKLATEVDRTGRAVILTTTREHAELKRDQIHAFGADRLLARSKGAMSASIEPEAE
B15: PS563: ClpS amino acid recognition protein, SEQ ID NO: 77 (protein, listed as Acidobacteria bacterium)
chain: MSSRSATAYPEVEDDTSDQLQPLYHVILLNDEDHTYDYVIEMLQKIFGFPESKAFSHAVEVDTKGTTILLTCDLEQAERKRDLIHSYGPDWRLPRSLGSMAAVVEPAAG
B16: PS562: ClpS amino acid recognition protein, SEQ ID NO: 76 (protein, listed as Rubripirellula amarantea)
chain: MSDQQSMVAEPEVVVHTQDEKKLEKQNKRKKQPRYNVVLWDDTDHSYDYVVLMMKQLFHHPIETGFQIAKQVDKGGKAICLTTTMEHAELKRDQIHAFGKDDLIARCTGSMSATIEPVPE
B17: PS574: ClpS amino acid recognition protein, SEQ ID NO: 88 (protein, listed as Gemmata obscuriglobus)
chain: MANATPTPDVVPEEETETRTRRQPPYAVVLHNDDTNTMDFVVTVLRKVFGYTVEKCVELMLEAHTQGKVAVWIGALEVAELKADQIKSFGPDPHVTKNGHPLGVTVEPAA
B18: PS577: ClpS amino acid recognition protein, SEQ ID NO: 91 (protein, listed as Tuwongella immobilis)
chain: MSASSSQPGTTTKPDLDIQPRLLPPFHVILENDEFHSMEFVIDTLRKVLGVSIERAYQLMMTAHESGQAIIWTGPKEVAELKYEQVIGFHEKRSDGRDLGPLGCRIEPAV
B19: PS567: ClpS amino acid recognition protein, SEQ ID NO: 81 (protein, listed as Planctomycetaceae bacterium)
chain: MADYEDAGEDALEDDFDHGTVTVAPQKPEPKKQSENKRQANRQPRYNVLLWDSEDHTFEYVEKMLRELFGHIKKQCQIIAEQVDQEGRAVVLTTTLEHAELKRDQIHAYGKDQLEGSKGSMWSTIEAVD
B20: PS572: ClpS amino acid recognition protein, SEQ ID NO: 86 (protein, listed as Blastopirellula marina)
chain: MSSEELSLQTRPKRQPPFGVILHNDDLNSFDYVIDSIRKVFHYELEKCFQLTLEAHETGRSLLWTGTLEGAELKQELLLSCGPDPIMLDKGGLPLKVTLEELPQ
B21: PS561: ClpS amino acid recognition protein, SEQ ID NO: 75 (protein, listed as Roseimaritima sp.)
chain: MAELQTAVVEPTTRPEQDEKQSQSRPKRQPRYNVILWDDPDHSYDYVIMMLKELFGHPRQRGHQMAEEVDTTGRVICLTTTMEHAELKRDQIHAYGSDEGITRCKGSMSASIEPVPE
B22: PS573: ClpS amino acid recognition protein, SEQ ID NO: 87 (protein, listed as Leptospira fluminis)
chain: MSQTPVIEETTVKDPVKTGGPWKVVLWDDDEHTYDYVIEMLMEVCVMTMEQAFHHAVEVDTQKKTVVYSGEFEHAEHIQELILEYGPDPRMAVSKGSMSATLEKS
B23: PS578: ClpS amino acid recognition protein, SEQ ID NO: 92 (protein, listed as Planctomycetes bacterium)
chain: MSGTVVESKPRNSTQLAPRWKVIVHDDPVTTFDFVLGVLRRVFAKPPGEARRITREAHDTGSALVDVLALEQAEFRRDQAHSLARAEGFPLTLTLEPAD
B24: PS565: ClpS amino acid recognition protein, SEQ ID NO: 79 (protein, listed as Aquisphaera sp.)
chain: MSEFDHEHSGDTSVADPIVTTKTAPKPQKHAENETETRRQPPYNVIILNDEEHTFDYVIELLCKVFRHSLATAQELTWRIHLTGRAVVLTTHKELAELKRDQVLAYGPDPRMSVSKGPLDCFIEPAPGG
B25: PS557: ClpS amino acid recognition protein, SEQ ID NO: 71 (protein, listed as Planctomycetia bacterium)
chain: MPTAASATESAIEDTPAPARPEVDGRTKPKRQPRYHVVLWNDDDHTYQYVVVMLQSLFGHPPERGYRLAKEVDTQGRVIVLTTTREHAELKRDQIHAFGYDRLLARSKGSMKASIEAEE
B26: PS570: ClpS amino acid recognition protein, SEQ ID NO: 84 (protein, listed as Leptospira congkakensis)
chain: MTGAGASQPSILEETEVRPRLSDGPWKVVLWDDDFHTYEYVIEMLMDVCQMPWEKAFQHAVEVDTRKKTIVFSGELEHAEFVHERILNYGPDPRMGSSKGSMTATLEQ
B27: PS571: ClpS amino acid recognition protein, SEQ ID NO: 85 (protein, listed as Leptospira meyeri)
chain: B26 chain with G3S, A4S, V17R, R18K, S73F, S97T, Q108K

Tested on: amino acid at a terminal position of a polypeptide
Settings: Table 1, ClpS proteins; amino acid at terminal position; inferred from literature and/or demonstrated by the inventors; cited from earlier work

Molecule	Binding Pref.
B1	I, L, V
B2	I, L, V
B3	I, L, V
B4	I, L, V
B5	I, L, V
B6	I, L, V
B7	I, L, V
B8	I, L, V
B9	I, L, V
B10	F, Y, W, L
B11	F, L
B12	I, L, V
B13	I, L, V
B14	I, L, V
B15	I, L, V
B16	I, L, V
B17	I, L, V
B18	I, L, V
B19	I, L, V
B20	I, L, V
B21	I, L, V
B22	I, L, V
B23	I, L, V
B24	I, L, V
B25	I, L, V
B26	I, L, V
B27	I, L, V
